{
  "source": "patent EP4703380A1",
  "about": "“INTEGRIN-TARGETING ANTIBODIES AND USE THEREOF” (NIO BIOPHARMACEUTICALS. INC., priority 2023, dated 2024)",
  "key": {"[1]": {"molecular_target": "VLA-3 (ITGA3/ITGB1) on the cell membrane", "assay": "cell-based or functional assay"}, "[2]": {"molecular_target": "recombinant human VLA-3 protein (ITGA3/ITGB1 heterodimer) (human) (UniProt P05556)", "sequence (P05556 21-728, one chain of several)": "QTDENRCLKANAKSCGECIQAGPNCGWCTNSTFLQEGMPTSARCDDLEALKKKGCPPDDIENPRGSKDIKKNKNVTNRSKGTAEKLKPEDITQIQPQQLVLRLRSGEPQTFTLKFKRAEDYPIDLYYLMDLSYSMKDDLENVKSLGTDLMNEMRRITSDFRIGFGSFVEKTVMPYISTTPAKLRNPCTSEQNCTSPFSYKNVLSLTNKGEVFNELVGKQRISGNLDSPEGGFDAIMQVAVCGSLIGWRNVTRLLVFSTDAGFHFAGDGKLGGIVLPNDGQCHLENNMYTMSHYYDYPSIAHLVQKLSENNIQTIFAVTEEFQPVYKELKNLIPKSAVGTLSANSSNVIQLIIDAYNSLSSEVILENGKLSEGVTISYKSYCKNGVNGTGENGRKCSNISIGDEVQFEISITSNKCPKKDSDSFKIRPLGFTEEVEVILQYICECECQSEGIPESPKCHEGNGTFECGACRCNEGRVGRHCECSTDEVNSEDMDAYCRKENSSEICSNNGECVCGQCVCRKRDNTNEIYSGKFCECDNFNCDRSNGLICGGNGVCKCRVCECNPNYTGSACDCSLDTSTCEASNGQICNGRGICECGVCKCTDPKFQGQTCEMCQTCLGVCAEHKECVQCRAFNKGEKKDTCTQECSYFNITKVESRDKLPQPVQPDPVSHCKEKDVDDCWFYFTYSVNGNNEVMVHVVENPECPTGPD", "assay": "ELISA, coated VLA-3 (0.125-1.5 nM), antibody 1 µg/mL"}, "[3]": {"molecular_target": "recombinant human VLA-3 protein (ITGA3/ITGB1 heterodimer) (human) (UniProt P05556)", "assay": "BLI (Octet Red), antibody on AHC sensor, 50 nM VLA-3 with 2 mM Ca2+"}, "[4]": {"molecular_target": "recombinant human VLA-3 protein (ITGA3/ITGB1 heterodimer) (human) (UniProt P05556)", "assay": "BLI (Octet Red), antibody on AHC sensor, 50 nM VLA-3 with 2 mM EDTA"}, "[5]": {"molecular_target": "recombinant human VLA-3 protein (ITGA3/ITGB1 heterodimer) (human) (UniProt P05556)", "assay": "BLI (Octet Red), antibody on AHC sensor, 50 nM VLA-3 with 2 mM Mg2+"}, "[6]": {"molecular_target": "recombinant human VLA-3 protein (ITGA3/ITGB1 heterodimer) (human) (UniProt P05556)", "assay": "BLI (Octet Red), antibody on AHC sensor, 50 nM VLA-3 with 2 mM Mn2+"}, "[7]": {"molecular_target": "recombinant human VLA-3 protein (ITGA3/ITGB1 heterodimer) (human) (UniProt P05556)", "assay": "SPR (Biacore T200), PS4-002 immobilised on CM5, VLA-3 as analyte, HBS-EP running buffer with 3 mM EDTA"}, "[8]": {"molecular_target": "recombinant human VLA-3 protein (ITGA3/ITGB1 heterodimer) (human) (UniProt P05556)", "assay": "BLI (Octet Red), antibody on AHC sensor, VLA-3 as analyte, no additive, 0 mM EDTA in the running buffer"}, "[9]": {"molecular_target": "recombinant human VLA-3 protein (ITGA3/ITGB1 heterodimer) (human, UniProt P05556 21-728)", "sequence (P05556 21-728, one chain of several)": "as above", "assay": "ELISA, coated VLA-3 (0.125-1.5 nM), antibody 1 µg/mL"}},
  "data": [
    {"binder": "PS4-002-vcMMAE (PS4 maxibody-vcMMAE conjugate, WT) (Fc fusion, part only; not given: scFv linker, hinge-Fc and drug, not shown: another chain or arm of the molecule; a dimerising Fc or GST; small tags and cut ends, vcMMAE conjugated to cysteines after partial reduction with TCEP; average DAR 4.09; sites not stated, presumabl [CUT]) VH: QVQLVQSGGGLVNPGGSLRLSCAASGFPFSDHYMSWIRQAPGKGLEWVSYISNRGYTIHYADFVKGRFTISRDNAENTLYLQMNSLRAEDTAVYYCARDRGTIDAFDLWGQGTMVTVSS VL: QSALTQPASVSGSPGQSITIPCSGTSDDIGRYNYVSWYQQHPGKAPKLLIYDVTRRSSGVSSHFSGSKSGSTASLIISGLQADDEADYFCSSFTNNRTVVFGGGTKLTVL", "values": [
      {"measurement": "IC50 (nM), cell growth inhibition (AlamarBlue), A549 cells", "setting": "[1]", "result": 5.22, "unit": "nM"},
      {"measurement": "IC50 (nM), cell growth inhibition (AlamarBlue), BT20 cells", "setting": "[1]", "result": 134, "unit": "nM"},
      {"measurement": "IC50 (nM), cell growth inhibition (AlamarBlue), CoCaB1 cells", "setting": "[1]", "result": 2.21, "unit": "nM"},
      {"measurement": "IC50 (nM), cell growth inhibition (AlamarBlue), MDA-MB-231 cells", "setting": "[1]", "result": 0.77, "unit": "nM"},
      {"measurement": "IC50 (nM), cell growth inhibition (AlamarBlue), MDA-MB-453 cells (first row)", "setting": "[1]", "result": 9.79, "unit": "nM"},
      {"measurement": "IC50 (nM), cell growth inhibition (AlamarBlue), MDA-MB-453 cells (second row)", "setting": "[1]", "result": 18.8, "unit": "nM"},
      {"measurement": "IC50 (nM), cell growth inhibition (AlamarBlue), MKN45 cells", "setting": "[1]", "result": 14.1, "unit": "nM"},
      {"measurement": "IC50 (nM), cell growth inhibition (AlamarBlue), Panc-1 cells", "setting": "[1]", "result": 2.7, "unit": "nM"},
      {"measurement": "IC50 (nM), cell growth inhibition (AlamarBlue), SCaBER cells", "setting": "[1]", "result": 1.88, "unit": "nM"},
      {"measurement": "IC50 (nM), cell growth inhibition (AlamarBlue), SW780 cells", "setting": "[1]", "result": 1.78, "unit": "nM"},
      {"measurement": "IC50 (nM), cell growth inhibition (AlamarBlue), UMUC-3 cells", "setting": "[1]", "result": 2.1, "unit": "nM"},
      {"measurement": "Maximum (% inhibition), cell growth inhibition (AlamarBlue), A549 cells", "setting": "[1]", "result": 77.3, "unit": "%"},
      {"measurement": "Maximum (% inhibition), cell growth inhibition (AlamarBlue), Aspc-1 cells", "setting": "[1]", "result": 51.8, "unit": "%"},
      {"measurement": "Maximum (% inhibition), cell growth inhibition (AlamarBlue), BT20 cells", "setting": "[1]", "result": 79.6, "unit": "%"},
      {"measurement": "Maximum (% inhibition), cell growth inhibition (AlamarBlue), CoCaB1 cells", "setting": "[1]", "result": 95.5, "unit": "%"},
      {"measurement": "Maximum (% inhibition), cell growth inhibition (AlamarBlue), MDA-MB-231 cells", "setting": "[1]", "result": 78, "unit": "%"},
      {"measurement": "Maximum (% inhibition), cell growth inhibition (AlamarBlue), MDA-MB-453 cells (first row)", "setting": "[1]", "result": 96.2, "unit": "%"},
      {"measurement": "Maximum (% inhibition), cell growth inhibition (AlamarBlue), MDA-MB-453 cells (second row)", "setting": "[1]", "result": 87.9, "unit": "%"},
      {"measurement": "Maximum (% inhibition), cell growth inhibition (AlamarBlue), MDA-MB-468 cells", "setting": "[1]", "result": 89.9, "unit": "%"},
      {"measurement": "Maximum (% inhibition), cell growth inhibition (AlamarBlue), MKN45 cells", "setting": "[1]", "result": 55.6, "unit": "%"},
      {"measurement": "Maximum (% inhibition), cell growth inhibition (AlamarBlue), Panc-1 cells", "setting": "[1]", "result": 73.8, "unit": "%"},
      {"measurement": "Maximum (% inhibition), cell growth inhibition (AlamarBlue), SCaBER cells", "setting": "[1]", "result": 89.7, "unit": "%"},
      {"measurement": "Maximum (% inhibition), cell growth inhibition (AlamarBlue), SW780 cells", "setting": "[1]", "result": 90.4, "unit": "%"},
      {"measurement": "Maximum (% inhibition), cell growth inhibition (AlamarBlue), UMUC-3 cells", "setting": "[1]", "result": 90.8, "unit": "%"}
    ]},
    {"binder": "PS4-002 maxibody (scFv-human IgG1 Fc), wild type (Fc fusion, part only; not given: scFv linker and IgG1 hinge-Fc, not shown: another chain or arm of the molecule; a dimerising Fc or GST; small tags and cut ends) VH: QVQLVQSGGGLVNPGGSLRLSCAASGFPFSDHYMSWIRQAPGKGLEWVSYISNRGYTIHYADFVKGRFTISRDNAENTLYLQMNSLRAEDTAVYYCARDRGTIDAFDLWGQGTMVTVSS VL: QSALTQPASVSGSPGQSITIPCSGTSDDIGRYNYVSWYQQHPGKAPKLLIYDVTRRSSGVSSHFSGSKSGSTASLIISGLQADDEADYFCSSFTNNRTVVFGGGTKLTVL", "values": [
      {"measurement": "EC50", "setting": "[2]", "result": 1, "unit": "nM"},
      {"measurement": "Kd", "setting": "[3]", "result": 6.46, "unit": "nM"},
      {"measurement": "koff", "setting": "[3]", "result": 0.000209, "unit": "s⁻¹"},
      {"measurement": "kon", "setting": "[3]", "result": 32400, "unit": "M⁻¹ s⁻¹"},
      {"measurement": "Kd", "setting": "[4]", "result": 2170, "unit": "nM"},
      {"measurement": "koff", "setting": "[4]", "result": 0.00397, "unit": "s⁻¹"},
      {"measurement": "kon", "setting": "[4]", "result": 1830, "unit": "M⁻¹ s⁻¹"},
      {"measurement": "Kd", "setting": "[5]", "result": 0.85, "unit": "nM"},
      {"measurement": "koff", "setting": "[5]", "result": "3.78e-05", "unit": "s⁻¹"},
      {"measurement": "kon", "setting": "[5]", "result": 44600, "unit": "M⁻¹ s⁻¹"},
      {"measurement": "Kd", "setting": "[6]", "result": 0.23, "unit": "nM"},
      {"measurement": "koff", "setting": "[6]", "result": "8.46e-06", "unit": "s⁻¹"},
      {"measurement": "kon", "setting": "[6]", "result": 36500, "unit": "M⁻¹ s⁻¹"},
      {"measurement": "Kd", "setting": "[7]", "result": 216, "unit": "nM"},
      {"measurement": "koff", "setting": "[7]", "result": 0.0045, "unit": "s⁻¹"},
      {"measurement": "kon", "setting": "[7]", "result": 20900, "unit": "M⁻¹ s⁻¹"},
      {"measurement": "Kd", "setting": "[8]", "result": 2.15, "unit": "nM"},
      {"measurement": "koff", "setting": "[8]", "result": "5.9e-05", "unit": "s⁻¹"},
      {"measurement": "kon", "setting": "[8]", "result": 32500, "unit": "M⁻¹ s⁻¹"}
    ]},
    {"binder": "PS4 maxibody variant 2 (Linker-C variant) (Fc fusion, also called Mutant 2; L-C; not shown: Fc domain of human IgG1) scFv: QVQLVQSGGGLVNPGGSLRLSCAASGFPFSDHYMSWIRQAPGKGLEWVSYISNRGYTIHYADFVKGRFTISRDNAENTLYLQMNSLRAEDTAVYYCARDRGTIDAFDLWGQGTMVTVSSGGGGGSGGGSCGGGGSQSALTQPASVSGSPGQSITIPCSGTSDDIGRYNYVSWYQQHPGKAPKLLIYDVTRRSSGVSSHFSGSKSGSTASLIISGLQADDEADYFCSSFTNNRTVVFGGGTKLTVLG", "values": [
      {"measurement": "EC50", "setting": "[9]", "result": "~1", "unit": "nM"}
    ]}
  ]
}
